Measured values reported in the RNAGym collection of RNA variant scans (doi:10.1073/pnas.2313332121).

B1: TPR t1 (parent)
chain: GACCAAUCUGCCCUCAGAGCUCGAGAACAUCUUCGGAUGCAGAGGAGGCAGGCUUCGGUGGCGCGAUAGCGCCAACGUCCUCAACCUCCAAUGCAUCCCACCACAUGAUGAUGCCUGAAGAGCCUUGGUUUUUUG

Variants of: B1
Assay: polymerase ribozyme fitness, log enrichment relative to wild type (log ratio); higher = more active; in vitro selection for triplet polymerase activity
How it was run: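 Each subunit of a heterodimeric triplet polymerase ribozyme was mutagenized into a library by PCR, transcribed, and subjected to one round of in vitro selection, run in triplicate. Libraries were annealed with a biotinylated primer, the partner subunit and triplets, incubated frozen at −7 °C, and extended constructs were gel-excised, captured on streptavidin beads and recovered by RT-PCR. Input and output libraries were sequenced on Illumina, keeping genotypes with ≥10 input reads and ≥1 read per output. Fitness is log base 2 of genotype enrichment divided by wild-type enrichment, from inverse-variance-weighted replicate averages.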

Variant | polymerase ribozyme fitness (log ratio)
GACCAAUCAGCCCUCAGAGCUCGAGAACAUCUUCGGAUGCAGAGGAGGCUGGCUUCGGUGGCGCGAUAGCGCCAACGUCCUCAACCUCCAAUGCAUCCCACAACAUGAUGAUGCCUGAAGAGCCUUGGUUUUUUG [U9A A50U C102A] | -1.91
GACCAAUCAGCCCUCAGAGCUCGAGAACAUCUUCGGAUGCAGAGGAGGCAGGCUUCGGUGGCGCGAUAGCGCCAUCGUCCUCAACCUCCAAUGCAGCCCACCACAUGAUGAUGCCUGAAGAGCCUUGGUUUUUUG [U9A A75U U96G] | -0.383
GACCAAUCAGCCCUCAGAGCUCGAGAACAUCUUCGGAUGCAGAGGAGGCAGGCUUCGGUGGCGCGAUAGCGCCAACGUCCUCUACCUCCAAUGCAUCCCACCACAUGAUGAUGCCUGAAGAGCCUUGGUUUUUUG [U9A A83U] | 0.0435
GACCAAUCAGCCCUCAGAGCUCGAGAACAUCUUCGGAUGCAGAGGAGGCAGGCUUCGGUGGCGCGAUAGCGCCAACGUCCUCAUCCUCCAAUGCAUCCCACCACAUGAUGAUGCCUGAAGCGCCUUGGUUUUUUG [U9A A84U A121C] | 2.06
GACCAAUCAGCCCUCAGAGCUCGAGAACAUCUUCGGAUGCAGAGGAGGCAGGCUUCGGUGGCGCGAUAGCGCCAACGUCCUCAACCUCCUAUGCACCCCACCACAAGAUGAUGCCUGAAGAGCCUUGCUUUUUUG [U9A A90U U96C U106A G128C] | -5.11
GACCAAUCAGCCCUCAGAGCUCGAGAACAUCUUCGGAUGCAGAGGAGGCAGGCUUCGGUGGCGCGAUAGCGCCAACGUCCUCAACCUCCAAUGCAUCCCUCCACAUGAUGAUGCCUGAAGAGCCUUGGUUUUUUG [U9A A100U] | 0.21
GACCAAUCAGACCUCAGAGCUCGAGAACAUCUUCGGAUGCAGAGGAGGCAGGCUUCGGUGGCGCGAUAGUGCCAACGUCCUCAAUCUCCAAUGCAUCCCACCACAUGAUGAUGCCUGAAGAGCCUUGGUUUUUUG [U9A C11A C70U C85U] | -1.15
GACCAAUCAGUCCUCAGAGCUCGAGAACAUCUUCGGAUGCAGAGGAGGCAGGCUUCGGUGGCGCGAUAGCGCCAACGUCCUCAACCUCCAAUGCAUCCCUCCACAUGAUGAUGCCUGAAGAGCCUUGGUUUUUUG [U9A C11U A100U] | -0.0164
GACCAAUCAGCGCUCAGAGCUCGAGAACAUCUUCGGAUGCAGAGGAGGCAGGCUUCGGUGGCGCGAUAGCGCCAACGUCCUCAACCGCCAAUGCAUCCUACCACAUGAUGAUGCCUGAAGAGCCUUGGUUUUUUG [U9A C12G U87G C99U] | -2.31
GACCAAUCAGCCGUCAGAGCUCGAGCACAUCUUCGGAUGCAGAGGAGGCAGGCUUCGGUGGCCCGAUAGCGCCAACGUCCUCAACCUCCAAUGCAUCCCACCACAUGAUAAUGCCUGAAGAGCCUUGGUUUUUUG [U9A C13G A26C G63C G110A] | -5.86
GACCAAUCAGCCGUCAGAGCUCGAGAACAUCUUCGGAUGCAGAGGGGGCAGGCUUCGGUGGCGCGAUAGCGCCAACGUCCUCAACCUCCAAUGCAUCCCACCACAUCAUGAUGCCUGAAGAGCCUUGGUUUUUUU [U9A C13G A46G G107C G135U] | -7.09
GACCAAUCAGCCGUCAGAGAUCGAGAACAUCUUCGGAUGCAGGGGAGGCAGGCUUCGGUGGCGCGAUAGCGCCAACGUCCUCAACCUCCAAUGCGUCCCACCACAUGAUGAUGCCUGAAGAGCCUUGGUUUUUUG [U9A C13G C20A A43G A95G] | -4.1
GACCAAUCAGCCGUCAGAGCUCGAGAACAUCUUCAGAUGCAGAGGAGGCAGGCUUCGGUGGCGCGAUAGCGCCAACGUCCUCAACCUCCAAUGCAUCCCACCACAUGAUGAUGCCUGAAGAGCCUUGGUUUUUUG [U9A C13G G35A] | -3.79
GACCAAUCAGCCGUCAGAGCUCGAGAACAUCAUCGGAUCCUGAGGAGGCAGGCUUCGGUCGCGCGAUAGCGCCAACGUCCUCAACCUUCAAUGCAUCCCACCACAUGAUGAUGCCUAAAGAGCCUUGGUUUUUUG [U9A C13G U32A G39C A41U G60C C88U G117A] | -7.75
GACCAAUCAGCCUUCAGAGCUCGAGAACAUCUUCGGAUGCAGAGGAGGCAGGCUUCGGUGGCGCGAUAGCGCCAACGUUCUCAACCUCCAAUGCAUCCCACCACAUGAUGAUGACUGAAGAGCCUUGGUUUUUUG [U9A C13U C79U C114A] | 0.44
GACCAAUCAGCCUUCAGAGCUCGAGAACAUCUUCGGAUGCAGAGGAGGCAGGCUUCGGUGGCACGAUAGCGCCAACGUCCUCAACCUACAAUGCAUCCCACCACAUGAUGAUCCCUGAAGAGCCUUGGGUUUUGG [U9A C13U G63A C88A G113C U129G U134G] | -3.06
GACCAAUCAGCCUUCAGAGCUCGAGAACAUCUUCGGAUGCAGAGGAGGCAGGCUUCGGUGGCGCGAUAGCGCCAACGUCCUCAACCUCCAAAGCAUCCCAACACAUGAUGAUGCCUGAAGAGCCUUGGUUUUUUG [U9A C13U U92A C101A] | -4.36
GACCAAUCAGCCCUCAGAGAUCGAGAACAUCUUCGGAUGCAGAGGAGGCAGGCUUCGGUGGCGCGAUAGCGCCAACGUCCUCAACCUCCAAUGCAUCCCACCACAUGAUGAUGCCUGAAGAGCCUUGGUUUUUUG [U9A C20A] | -2.35
GACCAAUCAGCCCUCAGAGGUCGAGAACAUCUUCGGAUGCAGAGGAGGCAGGCUUCGGUGGCGCGAUAGCGCCAACGUCCUCAACCUCCAAUGCAGCCCACCACAUGAUGAUGCCUGAAGAGCUUUGGUUUUUUG [U9A C20G U96G C124U] | -3.29
GACCAAUCAGCCCUCAGAGCUUGAGAACAUCUUCGGAUGCAGAGGAGGCAGGCUUCGGUGGCGCGAUAGCGCCAACGUCCUCAACCUCCAAUGCAUCCCACCACAUGAUGAUGCCUGAAGAGCCUUGGUUUUUUG [U9A C22U] | -3.34
GACCAAUCAGCCCUCAGAGCUCGAGAACAUCUUUGGCUGCAGAGGUGGCAGGCUUUGGUGGCGCGAUAGCGCCAACGUCCUCAACCUCCAAUGCAUCCCACCACAUCAUGAUGUCUGAAGAACCUUCGUUUUUUG [U9A C34U A37C A46U C56U G107C C114U G122A G127C] | -7.05

Variant | polymerase ribozyme fitness (log ratio)
GACCAAUCAGCCCUCAGAGCUCGAGAACAUCUUCGGAUGCAGAGGAGGCAGGUUUCGGUGGCGCGAUAGCGCCAACGUCCUCAACCUCCAAUGCAUCCCACCACAUGAUGAUGCCUGAAGAGCCUUGGUUUUUUG [U9A C53U] | 0.789
GACCAAUCAGCCCUCAGAGCUCGAGAACAUCUUCGGAUGCAGAGGAGGCAGGCUUAGGUGGCGCGAUAGCGCCAACGUCCUCAACCUCCAAUGCAUCCCACCACAUGAUGAUGCCUGAAGAGCCUUGGUUUUUUG [U9A C56A] | 0.00188
GACCAAUCAGCCCUCAGAGCUCGAGAACAUCUUCGGAUGCAGAGGAGGCAGGCUUUGGUGGCGCGAUAGCGCCAACGUCCUCAACCUCCAAUGCAUCCCACCACAUGAUGAUGCCUGAAGAGCCUUGGUUUUUUG [U9A C56U] | 0.248
GACCAAUCAGCCCUCAGAGCUCGAGAACAUCUUCGGAUGCAGAGGAGGCAGGCUUUGGUGGCGCGAUAGCGCUAACGUCCUCAACCUCCAAUGCAUCCCACCACAUGAUGAUGCCUGAAGAGCCUUGGUUUUUUG [U9A C56U C73U] | 0.233
GACCAAUCAGCCCUCAGAGCUCGAGAACAUCUUCGGAUGCAGAGGAGGCAGGCUUCGGUGGAGCGAUAGCGCCAACGUCCUCAAGCUCCAAUGCAUCCCACCACAUGAUGAUGCCUGAAGAGCCUUGGUUCUUUG [U9A C62A C85G U131C] | -1.16
GACCAAUCAGCCCUCAGAGCUCGAGAACAUCUUCGGAUGCAGAGGAGGCAGGCUUCGGUGGCGUGAUAGCGCCAACGUCCUCAACCUCCAAUGCAUCCCACCACAUGAUGAUGCCUAAAGAGCCUUGGUUUUUUG [U9A C64U G117A] | 0.77
GACCAAUCAGCCCUCAGAGCUCGAGAACAUCUUCGGAUGCAGAGGAGGCAGGCUUCGGUGGCGCGAUAGCGCGAACGUCCUCAACCUCCAAUGCAUCCCACCACAUGAUGAUGCCUGAAGAGCCUUGGUUUUUUG [U9A C73G] | -0.255
GACCAAUCAGCCCUCAGAGCUCGAGAACAUCUUCGGAUGCAGAGGAGGCAGGCUUCGGUGGCGCGAUAGCGCGAACGUCCUCAACCUCCAAUGCAUCCCACCACAUGAUGAUGCCUAAAGAGCCUUGGUUUUUUG [U9A C73G G117A] | 0.428
GACCAAUCAGCCCUCAGAGCUCGAGAACAUCUUCGGAUGCAGAGGAGGCAGGCUUCGGUGGCGCGAUAGCGCCAACGUCUUCAACCUCCAAUGCAUCCCAUCACAUGAUGUUGCCAGAAGAGCCUUGGUUUUUUG [U9A C80U C101U A111U U116A] | -4.4
GACCAAUCAGCCCUCAGAGCUCGAGAACAUCUUCGGAUGCAGAGGAGGCAGGCUUCGGUGGCGCGAUAGCGCCAACGUCCUCAACGUCCAAUGCAUCCCACCACAUGAUGAUGCCUGAAGAGCCUUGGUUUUUUG [U9A C86G] | 0.0417
GACCAAUCAGCCCUCAGAGCUCGAGAACAUCUUCGGAUGCAGAGGAGGCAGGCUUCGGUGGCGCGAUAGCGCCAACGUCCUCAACCUCGUAUGCAUCCCACCACAUGAUGAUGCCUGAAGAGCCUUGGUUUUUUG [U9A C89G A90U] | -0.63
GACCAAUCACCCUUCAGAGCUCGAGAACAUCUUCGGAUGAAGAGGAGGCAGGCUUCGGUGGCGCGAUAGCGCCAACGUCAUCAACCUCCAAUGCAUCCCACCACAUGAUGAUGCCUGAAGAACCUUGGUUUUUUG [U9A G10C C13U C40A C80A G122A] | -3.43
GACCAAUCAGCCCUCAGAGCUCGAGAACAUCUUCGAAUGCAGAGGAGGCAGGCUUCGGUGGCGCGAUAGCGCCAACGUCCUCAACCUCCAAUGCAUCCCACCACAUGAUGAUACCUGAAGAGCCUUGGUUUUUUG [U9A G36A G113A] | -0.728
GACCAAUCAGCCCUCAGAGCUCGAGAACAUCUUCGGAUCCAGAGGAGGCAGGCUUCGGUGGCGCGAUAGCGCCAACGUCCUCAACCUCCAAUGCAUCCCACCACAUGAUGAUGCCUGAAGAGCCUUGGUUUUUUG [U9A G39C] | -0.517
GACCAAUCAGCCCUCAGAGCUCGAGAACAUCUUCGGAUCCAGAGGAGGCAGGCUUCGGUGGAGCGAUAGCGCCAACGACCUCAACCGCCAAUGCAUCCCACCACAUGAUUAUGCCUGAAGAGCCUUGGUUUUUUG [U9A G39C C62A U78A U87G G110U] | -5.8
GACCAAUCAGCCCUCAGAGCUCGAGAACAUCUUCGGAUGCAAAGGAGGCAGGCUUCUGUGGCGCGAUAGCGCCAACGUCCUCAACCUCCAAUGCAUCCCACCACAUGAUGAUGCAUGAAGAGCCUUUGUUAUUUG [U9A G42A G57U C115A G127U U131A] | -3.74
GACCAAUCAGCCCUCAGAGCUCGAGAACAUCUUCGGAUGCAAAGGAGGCAGGCUUCGGUGGCGCGAUAGCGCCAACGUCCUCAACCCCCAAUGCAUCCCAACACAUGAUGAUGCCUGAAAAGCCUUGGUUUUUUG [U9A G42A U87C C101A G120A] | -1.63
GACCAAUCAGCCCUCAGAGCUCGAGAACAUCUUCGGAUGCAGAAGAGGCAGGCUUCGGUGGCGCGAUAACGUCAACGUCCUCAACCCCCAAUGCAUCCCACCACAUGAUGAUGCCUGAAGAGCCUUGGUUUUUUG [U9A G44A G69A C72U U87C] | -3.54
GACCAAUCAGCCCUCAGAGCUCGAGAACAUCUUCGGAUGCAGAGUAGGCAGGCUUCGGUGGCGCGAUAGCGCUAACGUCCUCAACCUCCAAUGCAUCUCACCACAUGAUGAUGCCUGAAGAGCCUUGGUUUUUUG [U9A G45U C73U C98U] | -0.532
GACCAAUCAGCCCUCAGAGCUCGAGAACAUCUUCGGAUGCAGAGGAGGCAAACUUCGGUGGCGCGAUAGGGCCAACGUCCUUAACCUCCAAUGCAUCCCACCACAUGAUGAUGCCUGAACAGCCUUGGUUUUUUG [U9A G51A G52A C70G C82U G120C] | -5.71
GACCAAUCAGCCCUCAGAGCUCGAGAACAUCUUCGGAUGCAGAGGAGGCAAGCUUCGGUGGCGCGAUAGCGCCAACGUCCUCAACCUCCAAUGCAUCCCACCACAUGAUGAAGCCUGAAGAGCCUUGGUUUUUUG [U9A G51A U112A] | -2.45
